B1: P2 on rat liver ribosome (natural protein, rat (endogenous in rat liver ribosome), UniProt P02401 1-115, looked up)
chain: MRYVASYLLAALGGNSNPSAKDIKKILDSVGIEADDERLNKVISELNGKNIEDVIAQGVGKLASVPAGGAVAVSAAPGSAAPAAGSAPAAAEEKKDEKKEESEESDDDMGFGLFD
notes: also called P-protein P2

Assay [1] deals with Ribosomal protein P2 (UniProt P05387).
For assay [2] the target is unchanged. In words: SPR; BIAcore 3000; P2 amine-coupled to CM5 chip (1300 RU); RIPs injected at 30 µl/min in 20 mM Tris, 30 mM NaCl, 0.005% Tween 20, pH 7.4; KD from RU at equilibrium.
The target of assay [3] is P2 on rat liver ribosome (rat (endogenous in rat liver ribosome)) (UniProt P02401). As to conditions: scale: arbitrary.
A further assay deals with T1, His-Myc-tagged MOD (maize, UniProt P25891 17-286, Δ163–164 | Δ167–189, labelled with the crosslinker NHS-SS-Diazirine (SDAD)).
T1 construct: source: E. coli BL21(DE3)pLysS, purified (HisTrap); not shown: Myc, C-terminal, kept
T1 sequence: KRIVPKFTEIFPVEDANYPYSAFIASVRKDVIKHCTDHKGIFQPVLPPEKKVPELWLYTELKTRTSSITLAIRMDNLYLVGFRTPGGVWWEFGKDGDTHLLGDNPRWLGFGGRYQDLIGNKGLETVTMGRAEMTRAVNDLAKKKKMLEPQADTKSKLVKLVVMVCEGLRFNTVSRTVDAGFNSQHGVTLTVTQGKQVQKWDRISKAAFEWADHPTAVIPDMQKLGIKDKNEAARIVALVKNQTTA
As to the kind of experiment: cross-linking; SDAD-labelled Myc-MOD (90 µM) with rat liver ribosome (0.8 µM) in PBS, room temperature 30 minutes, UV 365 nm for an hour; western blot with anti-Myc and anti-P. The conditions noted are these: both partners purified. A general note: Immunoblotting shows a protein as a band on a membrane.

In the assay “P2 on rat liver ribosome” the target is B1. As to the kind of experiment: cell-based or functional assay.
Assay [4] has as its target Ribosomal protein P2 (UniProt P05387 1-115). In words: cell-based or functional assay.

One may read the Kd as the concentration at which binding is half-saturated.

Turning to Trichosanthin (enzyme), the cytotoxicity to 293T cells (MTT, 72 hours), EC50 in the assay with Ribosomal protein P2 [1] worked out at 0.63 µM. Also, the Kd with Ribosomal protein P2 [2] came to 612 µM. Moreover, the relative N-glycosidase activity on rat liver ribosome (5 nM RIP, qPCR) in assay [3] worked out at 2610.

On to B1, for which, in the assay with His-Myc-tagged MOD, the binding result was “binds”.

B2: Maize [Δ1–16, Δ163–164, Δ167–189, Δ287–300]-Pro-RIP (enzyme)
chain: KRIVPKFTEIFPVEDANYPYSAFIASVRKDVIKHCTDHKGIFQPVLPPEKKVPELWLYTELKTRTSSITLAIRMDNLYLVGFRTPGGVWWEFGKDGDTHLLGDNPRWLGFGGRYQDLIGNKGLETVTMGRAEMTRAVNDLAKKKKMLEPQADTKSKLVKLVVMVCEGLRFNTVSRTVDAGFNSQHGVTLTVTQGKQVQKWDRISKAAFEWADHPTAVIPDMQKLGIKDKNEAARIVALVKNQTTA
Regarding B2, in the assay with P2 on rat liver ribosome, the “N-glycosidase activity on rat liver ribosome, folds increased to untreated” value came to 14.3 fold and the “relative N-glycosidase activity on rat liver ribosome (5 nM RIP, qPCR)” value (from here on “relative N-glycosidase activity”) is 54.3 arbitrary (ratio multiplied by an arbitrary factor). The “cytotoxicity to 293T cells (MTT, 72 hours), IC50 (also called EC50)” value in the assay with Ribosomal protein P2 [4] was 7.88 µM.

B3: MOD [K158A-K161A] (enzyme)
chain: KRIVPKFTEIFPVEDANYPYSAFIASVRKDVIKHCTDHKGIFQPVLPPEKKVPELWLYTELKTRTSSITLAIRMDNLYLVGFRTPGGVWWEFGKDGDTHLLGDNPRWLGFGGRYQDLIGNKGLETVTMGRAEMTRAVNDLAAAAAMLEPQADTKSKLVKLVVMVCEGLRFNTVSRTVDAGFNSQHGVTLTVTQGKQVQKWDRISKAAFEWADHPTAVIPDMQKLGIKDKNEAARIVALVKNQTTA
Turning to B3, in the assay with P2 on rat liver ribosome, the “N-glycosidase activity on rat liver ribosome, folds increased to untreated” value was determined as 0.85 fold and the “relative N-glycosidase activity” value was 3.24 arbitrary (ratio multiplied by an arbitrary factor).

B4: Maize [Δ1–16, Δ287–300]-Pro-RIP (enzyme)
chain: KRIVPKFTEIFPVEDANYPYSAFIASVRKDVIKHCTDHKGIFQPVLPPEKKVPELWLYTELKTRTSSITLAIRMDNLYLVGFRTPGGVWWEFGKDGDTHLLGDNPRWLGFGGRYQDLIGNKGLETVTMGRAEMTRAVNDLAKKKKMATLEEEEVQMQMQMPEAADLAAAAAADPQADTKSKLVKLVVMVCEGLRFNTVSRTVDAGFNSQHGVTLTVTQGKQVQKWDRISKAAFEWADHPTAVIPDMQKLGIKDKNEAARIVALVKNQTTA
With B4, in the assay with P2 on rat liver ribosome, the “N-glycosidase activity on rat liver ribosome, folds increased to untreated” value amounted to 1.59 fold and the “relative N-glycosidase activity” value is 6.06 arbitrary (ratio multiplied by an arbitrary factor).

(Values after PMC3520970 (PLoS ONE, 2012).)
